These results are taken from US12679878B2, “CRF2 receptor agonists and their use in therapy” (SANOFI, priority 2020, dated 2026).

This experiment deals with T1, CRF1R receptor (anti-target) (UniProt P34998 24-415, limits assumed).
T1 sequence (looked up): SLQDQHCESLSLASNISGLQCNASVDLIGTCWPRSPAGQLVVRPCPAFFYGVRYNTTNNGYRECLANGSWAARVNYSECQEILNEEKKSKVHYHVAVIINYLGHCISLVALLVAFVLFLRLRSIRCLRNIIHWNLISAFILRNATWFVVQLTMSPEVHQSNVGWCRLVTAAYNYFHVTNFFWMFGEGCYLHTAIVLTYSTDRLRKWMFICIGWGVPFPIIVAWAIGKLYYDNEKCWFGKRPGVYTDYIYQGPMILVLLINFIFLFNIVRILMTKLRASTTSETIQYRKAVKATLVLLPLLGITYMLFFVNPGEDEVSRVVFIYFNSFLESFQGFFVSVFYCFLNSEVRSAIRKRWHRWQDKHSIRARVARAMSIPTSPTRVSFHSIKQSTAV
Description: cell-based or functional assay.

Starred links: 1 amine or outer side, 2 acyl side, 3 side chain; linkers in the order of their positions; H or OH if unused. Non-standard residues stand in square brackets, D forms with d. Groups on a side chain read outwards from the residue. No end group written: not given here. *: point of attachment. C18 diacid = O=C(O)CCCCCCCCCCCCCCCCC(=O)*; γGlu = O=C(O)[C@H](CCC(=O)[*:2])N[*:1]; AEEA = NCCOCCOCC(=O)O; Aib = CC(C)(N)C(=O)O

B1: peptide of SEQ ID NO: 106 (peptide)
peptide: IVLSLDVPIKLK([AEEA-AEEA-γGlu-C18 diacid])QILLEQERQK[Aib]QREQAETNKQILERV-NH2
modifications: N-terminus assumed
SMILES: CC[C@H](C)[C@H](N)C(=O)N[C@H](C(=O)N[C@@H](CC(C)C)C(=O)N[C@@H](CO)C(=O)N[C@@H](CC(C)C)C(=O)N[C@@H](CC(=O)O)C(=O)N[C@H](C(=O)N1CCC[C@H]1C(=O)N[C@H](C(=O)N[C@@H](CCCCN)C(=O)N[C@@H](CC(C)C)C(=O)N[C@@H](CCCCNC(=O)COCCOCCNC(=O)COCCOCCNC(=O)CC[C@H](NC(=O)CCCCCCCCCCCCCCCCC(=O)O)C(=O)O)C(=O)N[C@@H](CCC(N)=O)C(=O)N[C@H](C(=O)N[C@@H](CC(C)C)C(=O)N[C@@H](CC(C)C)C(=O)N[C@@H](CCC(=O)O)C(=O)N[C@@H](CCC(N)=O)C(=O)N[C@@H](CCC(=O)O)C(=O)N[C@@H](CCCNC(=N)N)C(=O)N[C@@H](CCC(N)=O)C(=O)N[C@@H](CCCCN)C(=O)NC(C)(C)C(=O)N[C@@H](CCC(N)=O)C(=O)N[C@@H](CCCNC(=N)N)C(=O)N[C@@H](CCC(=O)O)C(=O)N[C@@H](CCC(N)=O)C(=O)N[C@@H](C)C(=O)N[C@@H](CCC(=O)O)C(=O)N[C@H](C(=O)N[C@@H](CC(N)=O)C(=O)N[C@@H](CCCCN)C(=O)N[C@@H](CCC(N)=O)C(=O)N[C@H](C(=O)N[C@@H](CC(C)C)C(=O)N[C@@H](CCC(=O)O)C(=O)N[C@@H](CCCNC(=N)N)C(=O)N[C@H](C(N)=O)C(C)C)[C@@H](C)CC)[C@@H](C)O)[C@@H](C)CC)[C@@H](C)CC)C(C)C)C(C)C
As for B1, the “EC50 [nM] 0% HSA (cAMP, HTRF)” value is greater than 100 nM and the “Emax (%) (100% = Sauvagine at 100 nM)” value stood at 5.1%.

B2: peptide of SEQ ID NO: 110 (peptide)
peptide: IVLSLDVPIKLK([AEEA-AEEA-γGlu-C18 diacid])QILLKQERQK[Aib]QRQQAETNKQILAQV-NH2
modifications: N-terminus assumed
SMILES: CC[C@H](C)[C@H](N)C(=O)N[C@H](C(=O)N[C@@H](CC(C)C)C(=O)N[C@@H](CO)C(=O)N[C@@H](CC(C)C)C(=O)N[C@@H](CC(=O)O)C(=O)N[C@H](C(=O)N1CCC[C@H]1C(=O)N[C@H](C(=O)N[C@@H](CCCCN)C(=O)N[C@@H](CC(C)C)C(=O)N[C@@H](CCCCNC(=O)COCCOCCNC(=O)COCCOCCNC(=O)CC[C@H](NC(=O)CCCCCCCCCCCCCCCCC(=O)O)C(=O)O)C(=O)N[C@@H](CCC(N)=O)C(=O)N[C@H](C(=O)N[C@@H](CC(C)C)C(=O)N[C@@H](CC(C)C)C(=O)N[C@@H](CCCCN)C(=O)N[C@@H](CCC(N)=O)C(=O)N[C@@H](CCC(=O)O)C(=O)N[C@@H](CCCNC(=N)N)C(=O)N[C@@H](CCC(N)=O)C(=O)N[C@@H](CCCCN)C(=O)NC(C)(C)C(=O)N[C@@H](CCC(N)=O)C(=O)N[C@@H](CCCNC(=N)N)C(=O)N[C@@H](CCC(N)=O)C(=O)N[C@@H](CCC(N)=O)C(=O)N[C@@H](C)C(=O)N[C@@H](CCC(=O)O)C(=O)N[C@H](C(=O)N[C@@H](CC(N)=O)C(=O)N[C@@H](CCCCN)C(=O)N[C@@H](CCC(N)=O)C(=O)N[C@H](C(=O)N[C@@H](CC(C)C)C(=O)N[C@@H](C)C(=O)N[C@@H](CCC(N)=O)C(=O)N[C@H](C(N)=O)C(C)C)[C@@H](C)CC)[C@@H](C)O)[C@@H](C)CC)[C@@H](C)CC)C(C)C)C(C)C
In the case of B2, the “EC50 [nM] 0% HSA (cAMP, HTRF)” value was greater than 100 nM and the “Emax (%) (100% = Sauvagine at 100 nM)” value came to 5.4%.

B3: peptide of SEQ ID NO: 108 (peptide)
peptide: IVLSLDVPIKLK([AEEA-AEEA-γGlu-C18 diacid])QILLKQERQK[Aib]QRQKAETNKQILAQV-NH2
modifications: N-terminus assumed
SMILES: CC[C@H](C)[C@H](N)C(=O)N[C@H](C(=O)N[C@@H](CC(C)C)C(=O)N[C@@H](CO)C(=O)N[C@@H](CC(C)C)C(=O)N[C@@H](CC(=O)O)C(=O)N[C@H](C(=O)N1CCC[C@H]1C(=O)N[C@H](C(=O)N[C@@H](CCCCN)C(=O)N[C@@H](CC(C)C)C(=O)N[C@@H](CCCCNC(=O)COCCOCCNC(=O)COCCOCCNC(=O)CC[C@H](NC(=O)CCCCCCCCCCCCCCCCC(=O)O)C(=O)O)C(=O)N[C@@H](CCC(N)=O)C(=O)N[C@H](C(=O)N[C@@H](CC(C)C)C(=O)N[C@@H](CC(C)C)C(=O)N[C@@H](CCCCN)C(=O)N[C@@H](CCC(N)=O)C(=O)N[C@@H](CCC(=O)O)C(=O)N[C@@H](CCCNC(=N)N)C(=O)N[C@@H](CCC(N)=O)C(=O)N[C@@H](CCCCN)C(=O)NC(C)(C)C(=O)N[C@@H](CCC(N)=O)C(=O)N[C@@H](CCCNC(=N)N)C(=O)N[C@@H](CCC(N)=O)C(=O)N[C@@H](CCCCN)C(=O)N[C@@H](C)C(=O)N[C@@H](CCC(=O)O)C(=O)N[C@H](C(=O)N[C@@H](CC(N)=O)C(=O)N[C@@H](CCCCN)C(=O)N[C@@H](CCC(N)=O)C(=O)N[C@H](C(=O)N[C@@H](CC(C)C)C(=O)N[C@@H](C)C(=O)N[C@@H](CCC(N)=O)C(=O)N[C@H](C(N)=O)C(C)C)[C@@H](C)CC)[C@@H](C)O)[C@@H](C)CC)[C@@H](C)CC)C(C)C)C(C)C
Turning to B3, the “EC50 [nM] 0% HSA (cAMP, HTRF)” value was greater than 100 nM and the “Emax (%) (100% = Sauvagine at 100 nM)” value was -2%.

B4: peptide of SEQ ID NO: 109 (peptide)
peptide: IVLSLDVPIKLK([AEEA-AEEA-γGlu-C18 diacid])QILLKQERQK[Aib]QREKAETNKQILAQV-NH2
modifications: N-terminus assumed
SMILES: CC[C@H](C)[C@H](N)C(=O)N[C@H](C(=O)N[C@@H](CC(C)C)C(=O)N[C@@H](CO)C(=O)N[C@@H](CC(C)C)C(=O)N[C@@H](CC(=O)O)C(=O)N[C@H](C(=O)N1CCC[C@H]1C(=O)N[C@H](C(=O)N[C@@H](CCCCN)C(=O)N[C@@H](CC(C)C)C(=O)N[C@@H](CCCCNC(=O)COCCOCCNC(=O)COCCOCCNC(=O)CC[C@H](NC(=O)CCCCCCCCCCCCCCCCC(=O)O)C(=O)O)C(=O)N[C@@H](CCC(N)=O)C(=O)N[C@H](C(=O)N[C@@H](CC(C)C)C(=O)N[C@@H](CC(C)C)C(=O)N[C@@H](CCCCN)C(=O)N[C@@H](CCC(N)=O)C(=O)N[C@@H](CCC(=O)O)C(=O)N[C@@H](CCCNC(=N)N)C(=O)N[C@@H](CCC(N)=O)C(=O)N[C@@H](CCCCN)C(=O)NC(C)(C)C(=O)N[C@@H](CCC(N)=O)C(=O)N[C@@H](CCCNC(=N)N)C(=O)N[C@@H](CCC(=O)O)C(=O)N[C@@H](CCCCN)C(=O)N[C@@H](C)C(=O)N[C@@H](CCC(=O)O)C(=O)N[C@H](C(=O)N[C@@H](CC(N)=O)C(=O)N[C@@H](CCCCN)C(=O)N[C@@H](CCC(N)=O)C(=O)N[C@H](C(=O)N[C@@H](CC(C)C)C(=O)N[C@@H](C)C(=O)N[C@@H](CCC(N)=O)C(=O)N[C@H](C(N)=O)C(C)C)[C@@H](C)CC)[C@@H](C)O)[C@@H](C)CC)[C@@H](C)CC)C(C)C)C(C)C
Regarding B4, the “EC50 [nM] 0% HSA (cAMP, HTRF)” value was greater than 100 nM and the “Emax (%) (100% = Sauvagine at 100 nM)” value stood at 1.1%.

B5: peptide of SEQ ID NO: 116 (peptide)
peptide: IVLSLDVPIKLK([AEEA-AEEA-γGlu-C18 diacid])QILLKQERQK[Aib]QREKAEKNKQILAQV-NH2
modifications: N-terminus assumed
SMILES: CC[C@H](C)[C@H](N)C(=O)N[C@H](C(=O)N[C@@H](CC(C)C)C(=O)N[C@@H](CO)C(=O)N[C@@H](CC(C)C)C(=O)N[C@@H](CC(=O)O)C(=O)N[C@H](C(=O)N1CCC[C@H]1C(=O)N[C@H](C(=O)N[C@@H](CCCCN)C(=O)N[C@@H](CC(C)C)C(=O)N[C@@H](CCCCNC(=O)COCCOCCNC(=O)COCCOCCNC(=O)CC[C@H](NC(=O)CCCCCCCCCCCCCCCCC(=O)O)C(=O)O)C(=O)N[C@@H](CCC(N)=O)C(=O)N[C@H](C(=O)N[C@@H](CC(C)C)C(=O)N[C@@H](CC(C)C)C(=O)N[C@@H](CCCCN)C(=O)N[C@@H](CCC(N)=O)C(=O)N[C@@H](CCC(=O)O)C(=O)N[C@@H](CCCNC(=N)N)C(=O)N[C@@H](CCC(N)=O)C(=O)N[C@@H](CCCCN)C(=O)NC(C)(C)C(=O)N[C@@H](CCC(N)=O)C(=O)N[C@@H](CCCNC(=N)N)C(=O)N[C@@H](CCC(=O)O)C(=O)N[C@@H](CCCCN)C(=O)N[C@@H](C)C(=O)N[C@@H](CCC(=O)O)C(=O)N[C@@H](CCCCN)C(=O)N[C@@H](CC(N)=O)C(=O)N[C@@H](CCCCN)C(=O)N[C@@H](CCC(N)=O)C(=O)N[C@H](C(=O)N[C@@H](CC(C)C)C(=O)N[C@@H](C)C(=O)N[C@@H](CCC(N)=O)C(=O)N[C@H](C(N)=O)C(C)C)[C@@H](C)CC)[C@@H](C)CC)[C@@H](C)CC)C(C)C)C(C)C
For the molecule B5, the “EC50 [nM] 0% HSA (cAMP, HTRF)” value was greater than 100 nM and the “Emax (%) (100% = Sauvagine at 100 nM)” value is 0.8%.

B6: peptide of SEQ ID NO: 117 (peptide)
peptide: IVLSLDVPIKLK([AEEA-AEEA-γGlu-C18 diacid])QILLKQERQK[Aib]QRQQAEKNKQILAQV-NH2
modifications: N-terminus assumed
SMILES: CC[C@H](C)[C@H](N)C(=O)N[C@H](C(=O)N[C@@H](CC(C)C)C(=O)N[C@@H](CO)C(=O)N[C@@H](CC(C)C)C(=O)N[C@@H](CC(=O)O)C(=O)N[C@H](C(=O)N1CCC[C@H]1C(=O)N[C@H](C(=O)N[C@@H](CCCCN)C(=O)N[C@@H](CC(C)C)C(=O)N[C@@H](CCCCNC(=O)COCCOCCNC(=O)COCCOCCNC(=O)CC[C@H](NC(=O)CCCCCCCCCCCCCCCCC(=O)O)C(=O)O)C(=O)N[C@@H](CCC(N)=O)C(=O)N[C@H](C(=O)N[C@@H](CC(C)C)C(=O)N[C@@H](CC(C)C)C(=O)N[C@@H](CCCCN)C(=O)N[C@@H](CCC(N)=O)C(=O)N[C@@H](CCC(=O)O)C(=O)N[C@@H](CCCNC(=N)N)C(=O)N[C@@H](CCC(N)=O)C(=O)N[C@@H](CCCCN)C(=O)NC(C)(C)C(=O)N[C@@H](CCC(N)=O)C(=O)N[C@@H](CCCNC(=N)N)C(=O)N[C@@H](CCC(N)=O)C(=O)N[C@@H](CCC(N)=O)C(=O)N[C@@H](C)C(=O)N[C@@H](CCC(=O)O)C(=O)N[C@@H](CCCCN)C(=O)N[C@@H](CC(N)=O)C(=O)N[C@@H](CCCCN)C(=O)N[C@@H](CCC(N)=O)C(=O)N[C@H](C(=O)N[C@@H](CC(C)C)C(=O)N[C@@H](C)C(=O)N[C@@H](CCC(N)=O)C(=O)N[C@H](C(N)=O)C(C)C)[C@@H](C)CC)[C@@H](C)CC)[C@@H](C)CC)C(C)C)C(C)C
Consider B6, for which the “EC50 [nM] 0% HSA (cAMP, HTRF)” value is greater than 100 nM and the “Emax (%) (100% = Sauvagine at 100 nM)” value is -6%.
